Experimental findings from a protein production outcome set (Wang et al. 2014) are described below.
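Also: failed if final PepcDB status was selected cloned or expressed and not failed if soluble or beyond.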

The nature of the data set: label from the status in PepcDB records.
As to “MKVYDVTAPIYEGMPVYKNKPEKQPKRTTITNGYVTESRIDMDVHTGTHIDAPLHMVEGGATFETIPLNDLVGPCKLFDLTHVNDRITKDDIAHLDIQEGDFVLFKTKNSFEDAFHFEFIFVAEDAARYLADKQIRGVGIDALGIERAQEGHPTHKTLFSAGVIIIEGLRLKDVPEGRYFMVAAPLKLVGTDAAPARVLLFDREP”, the protein production entry is “not failed”.

As to “MKWSEISIHTTEEAVEAVSHILHEAGASGVAIEDPAELTKEREQQYGEIYALNPDEYPAEGVLIKAYFPQTDSLHETIAGVKSSIDVLPSYDIEIGTGNITVNEVNEEDWATAWKKYYHPVQISDTFTIVPTWEEYTPSSPEEKIIELDPGMAFGTGTHPTTTMCIRALEKTVQPGDTIIDVGTGSGVLSIAAAKLGASSVQAYDLDPVAVESAEMNVRLNKTDDVVSVGQNSLLEGIEGPVDLIVANLLAEIILLFPEDAARVVKSGGLFITSGIIAAKEKVISEALEKAGFTIEEVLRMEDWVAIIARNA”, the protein production result was “failed”.

On to “MKYDVVVVGSGVAGPIVARDVAKAGFSVLLVDKKPAIGTPKQCAEGINVNVFKEFDIPYDKRFINREIYGARIYSPSGYTAELRYDKVSGVILERKVFDKMLAYYAAKAGADVWARTEVIDLLRKEGKIMGVKAKHEGELVEIEAKIIVAADGVESTVARLAGINTYAPPHEFDSAYEYEMIIEGYDPDLIHLWFGNEIAPRGYVWVFPKDEDRANVGIGINSDNEKTAKYYLDKWLKENNIPTKKILEINVGLVPVGGFVRELVKENVAVVGDAARQVNPVHGGGMYEAMKAANILAKWIVKALEEENLELLKNYTKEWWEVEGPKMERLLKLRRAMEKLTDEDIDVFVQLLGGTDLEKLAGGNYFEVVKALMKHPKVLMSKRRLEILKALL”, for which the protein production entry is given as “not failed”.

For the sequence “MKYIIIGLGNYGGVLAEELSVLGHEVIGVDTNEHRVDVLKDKIATSFIIDATDEQSLSVLPLKDVDVVIVAIGENFGASVRVVALLKKKGVKHIYARAVDDVHKTVLEAFNLDSILTPEKEAARSLVQLLDLHVNVESFQIDEEHYVMKFKLPSCFVGYKVSDLSLETEFNIKIIALIKGEKVLNGLGISILEHQVENHFEENYELEEEDQLVCYGLYKNFMDFWKAL”, the protein production result is given as “failed”.

On to “MKYIINHSNDTAFNIALEEYAFKHLLDEDQIFLLWINKPSIIVGRHQNTIEEINRDYVRENGIEVVRRISGGGAVYHDLNNLNYTIISKEDENKAFDFKSFSTPVINTLAQLGVKAEFTGRNDLEIDGKKFCGNAQAYINGRIMHHGCLLFDVDLSVLANALKVSKDKFESKGVKSVRARVTNIINELPKKITVEKFRDLLLEYMKKEYPEMTEYVFSEEELAEINRIKDTKFGTWDWNYGKSPEFNVRRGIKFTSGKVEVFANVTESKIQDIKIYGDFFGIEDVAAVEDVLRGVKYEREDVLKALKTIDITRYFAGISREEIAEAVVG”, for which the protein production entry is “not failed”.

For “MKYLCLIYFDEAKLAAVPAEELAAIVDECMTYSDQLGKAGHYIASHALQSVQTATTLRHQGGRLAMTDGPFAETKEQLGGFYLIEARDLNQALQIAAKIPPGRLGCVEVRPVKEWE”, the protein production result was “not failed”.

With “MKYLLLPVVVLLAGCQSLSQSDGNAITDNSDSQVETAHPVEINQALLADESIDVIHPVADVDFSLNNTLKDQKAIDENNIWPRIRSQLTFDIPNQKRLVSQRNWYVKHPSYLKRVAKRAEPFLYYIVQELEKNDMPIELAFLPIVESAFDPFAYSHGRASGMWQFVPGTGERFGMKQNWWYDGRRDVVASTEGAIKYLKYLHKFFDGDWMLALAAYNSGEGRVRNAVRKNKRLGKPTDFWSLDLPKETRAYVPKLLALADIVKRPEDFNLSLYSIDNKSVLSQVDIKSQLDLAKAATLAGLSLAELQRLNPGFNRWATDPDGPHRLLLPSHTVEKFELGLSKLSKKDRLAWQRYKIKSGDNLGLIANKFNTRVDLIQQVNNIKGNQIRAGKHLLIPVAAKSLDSYVFSQEQRIAKKQNRPQKGRKLVHTVKSGDNLWDIGRKYKVNSKSIAKWNGFAPRDTLKLGQKLVIWQKSDTKSNKSNFANSKTGNNVENAIMRNITYKVRRGDSFARIADKFNVRISDIERWNNLDRKKYLQPGQRLKLSVDVTNNI”, the protein production result was “failed”.

For “MLAAWLGCVLPAGAGLPVETLRVPPGFRVELLTEAMPSAREMALSPAGILYVGSRTGKVYALPLQVPGATVRVVASGLEQPVGVAWRDGSLYVSAVSRVVRLDRIDSRLDDPPVPVVVSDRFPTETHHGWKFIAFGPDGKLYVPVGAPCNVCHRDEDRYANLMRMNADGSSLEVVARGIRNTVGFDWHPVTHELWFTDNGADMMGDDVPDDELNRITAPGQHFGYPFCHAGDVPDPEFGAGHPCSRYVPPVGKLGAHVAALGMRFYTGSNFPQAYRHNLFIAEHGSWNRSSKVGYRVVRVVLDAAGKVVRQEPFVEGWLRGERAWGRPVDVLVAPDGSLLVSDDYAGAVYRVRYTGKLEHHHHHH”, the protein production entry is “failed”.

For the sequence “MLAILYDRIRPDERMLFERAEALGLPYKKVYVPALPMVLGERPKELEGVTVALERCVSQSRGLAAARYLTALGIPVVNRPEVIEACGDKWATSVALAKAGLPQPKTALATDREEALRLMEAFGYPVVLKPVIGSWGRLLAKVTDRAAAEALLEHKEVLGGFQHQLFYIQEYVEKPGRDIRVFVVGERAIAAIYRRSAHWITNTARGGQAENCPLTEEVARLSVKAAEAVGGGVVAVDLFESERGLLVNEVNHTMEFKNSVHTTGVDIPGEILKYAWSLAS”, the protein production result is reported as “not failed”.

As for “MLANQIKYVILHLTQSIIEYSMANLNCIKAVLAEKGIMSKWLAKTLKKDPATVSKWCNNHSQPDLYTLARIAEVLDVDIHKLICHTKEE”, the protein production entry is reported as “failed”.

Consider “MLAPGMGEWVYKANLFLFGEFAYYYPFFLFILNYVYYKRNYKLANFTRRELFGIGFAFFSSLLLFAVFYPNSGYILELAYAIFSTILGHTGSGIFALLLLLFSLVLLFPKFAKEILKIELDFTYLLKVEQAFKSLLMRVFGGENEKEDVGKSEPIVPKLNILQDSIYGNLQINKKGETNNLEQIIKDSNINASKNSITTAKENFEKLKNQILDETIEIDKQSLKESRSFVHEHSQQVRNFAQKASKMSISLDEDFNFISEEEVDMIPERFLKPKKLEDIKQIDTNKNLDEPSYKRKNIEIPVSNQEVKPKIFTKELELRENLIKKEKLEQEYKAYQNEILENKVKQEIKKLEEYDAINSSDIIEGNKYSFNSPKTIKTETEESDKINENKNLDKADNIFEFAPIVEELNHPYIEPTPIKNINEIVIEEKNTLDFIQNTETKIDNEKTNDQEIKLQKAVLAKEIAINQALLREIEQGEIEKPKDFTLPPLDFLANPKEHKQEINESEIDKKIYNLLEKLRRFKIGGDVISTYVGPVVTTFEFRPSADVKVSRILNLQDDLTMALMAKSIRIQAPIPGKDVVGIEVPNDEIQTIYLREILQSEVFKNAKSPLTIALGKDIVGNAFVTDLKKLPHLLIAGTTGSGKSVGINSMLLSLLYRNSPKTLRLMMIDPKMLEFSIYNDIPHLLTPVITDPKKAVNALSNMVAEMERRYRLMADAKTKNIENYNEKMKELGGEKLPFIVVIIDELADLMMTAGKDVEFYIGRLAQMARASGIHLIVATQRPSVDVVTGLIKANLPSRISYKVGQKIDSKVILDAMGAESLLGRGDCLFTPPGTSSIVRLHAPFASEFEIEKIVDFLKDQQSVEYDESFLKDQQSVGVTTNESFDGEADELYEEAKRVILEDGKTSISYLQRRLKIGYNRSANIIEQLTQNGILSEPDAKGQREIL”, for which the protein production result is listed as “failed”.

Turning to “MLARVRRVLALILIVLAGLVALLSPAFPALSHYGTLPRHGDKPLNVLLAGVDVNYDEQAPVWPYPAQPEDYSGRTDTIVLTQVRPDGTVKLLSIPRDSWVPIAGWSGGWGKINSANVHGGPDMLLNTVQALTGVHPDGYALLSLNALRAVTEAVGGVTIDVPQRMKYDDNAGHLHIDLQPGRQRLSGEQAEGFLRFRKDNMGDIGRVGRQQQFLTALIAEIRRPANVWKLPKVIAALDANAKTNLTRAQIAELLGAAQRGPQVSTFTVPGNFGMVGAASVWNVDTPRLDALLAEQFRDPGDPHGLRVLVLNADAPDGSARRLKAKLEALGYHNVSTANEQKPWPVTTVSGPATPAAALLRDLGYGQLDNAPSLPGSELTIRLGRDTPAQ”, the protein production result is recorded as “failed”.

On to “MLAVGIVGLPNVGKSTLFNALTRANALAANYPFATIDKNVGVVPLEDERLYALQRTFAKGERVPPVVPTHVEFVDIAGLVKGAHKGEGLGNQFLAHIREVAAIAHVLRCFPDPDVVHVMGRVDPLEDAEVVETELLLADLATLERRLERLRKEARADRERLPLLEAAEGLYVHLQEGKPARTFPPSEAVARFLKETPLLTAKPVIYVANVAEEDLPDGRGNPQVEAVRRKALEEGAEVVVVSARLEAELAELSGEEARELLAAYGLQESGLQRLARAGYRALDLLTFFTAGEKEVRAWTVRRGTKAPRAAGEIHSDMERGFIRAEVIPWDKLVEAGGWARAKERGWVRLEGKDYEVQDGDVIYVLFNA”, for which the protein production entry is “not failed”.

In the case of “MLAVSFIAGVILIGLYGVDSSERYIAVSELLANPQDYSGQNINAMGVVEDRSLHKDPGVTSFDLKDENDENLKIHVNYVGNLPSNLAEGKQVTIRGSMISESTFEANKIVTGCPSKYTELEHHHHHH”, the protein production entry is recorded as “failed”.

Take “MLCARTDNHQGTGNVVTSAHMTRANDDDAGAAGIGAVAHMTTVDDNYTGHVERGKAARRFLPGATILKASVGPMDNNAYLVTCSATGETLLIDAANDAEVLIDLVRRYAPKLALIVTSHQHFDHWQALQAVAAATGAPTAAHPIDADPLPVKPDRLLTHGDSVRIGELTFDVIHLRGHTPGSIALALGGPVTGGVTQLFTGDCLFPGGVGKTWQPADFTQLLDDVTTRVFDVYADSTVIYPGHGDDTELGAERPSLSEWRARGW”: the protein production entry is reported as “failed”.

For “MLCCMRRTKQVEKNDDDQKIEQDGIKPEDKAHKAATKIQASFRGHITRKKLKGEKKDDVQAAEAEANKKDEAPVADGVEKKGEGTTTAEAAPATGSKPDEPGKAGETPSEEKKGEGDAATEQAAPQAPASSEEKAGSAETESATKASTDNSPSSKAEDAPAKEEPKQADVPAAVTAAAATTPAAEDAAAKATAQPPTETGESSQAEENIEAVDETKPKESARQDEGKEEEPEADQEHA”, the protein production entry is given as “failed”.

Regarding “MLCCPDPRRRGQHNNRRRNAMPKLHESRIHDLRPTQLTVGMIEVQAKKTHLAAMAPADQQAFMQAHPIPAVLGPGGQLYITDHHHLGRAALDAGVITGYFMVEADLSQHSLDDFWKAMDQNLWVHPLDEHGVRHYYASIPKHLEKLVDDPYRSLAGYVRDAGGYDKTPTAFAEFVWADFFRRSIPIEDLLADFQAAVHAALPLAKSKFAKALPGYNGKLEHHHHHH”, the protein production entry was “failed”.

For the sequence “MLDANKLQQAVDQAYTQFHSLNGGQNADYIPFLANVPGQLAAVAIVTCDGNVYSAGDSDYRFALESISKVCTLALALEDVGPQAVQDKIGADPTGLPFNSVIALELHGGKPLSPLVNAGAIATTSLINAENVEQRWQRILHIQQQLAGEQVALSDEVNQSEQTTNFHNRAIAWLLYSAGYLYCDAMEACDVYTRQCSTLLNTIELATLGATLAAGGVNPLTHKRVLQADNVPYILAEMMMEGLYGRSGDWAYRVGLPGKSGVGGGILAVVPGVMGIAAFSPPLDEDGNSVRGQKMVASVAKQLGYNVFKG”, the protein production entry is “not failed”.

Consider “MLDGWQEIEADQIKRMQSALWHLLGNAIAYLSLFVIELVLATIGHSQSLHADAFNNFAGIVSSGLLSLGIWGGIHNHQSHQSKVTALDGWEAERRNRLMRFRLQDLFTLMSGVIMLVMAVQVIVSGVSNLFKSHTVQAVSGVTVWGAAIASIVMLVVWYFNRRGGQQLDNSTLLAAAKDSLSDALTSIGTLISLSGVLLFKFAWLDSVASIVIGFFIFAAGLQIFRDSGLQLINYSDPQVEKNYINTIQQIDGVNQVNAIDVQYSGSLVALSLVIAVSPRMTVAASFQLSERIEQVMRNQYGIIDTKVMFMPQT”, for which the protein production result was “failed”.
